# Results reported in US20250161419A1, “SERPIN PEPTIDES AND METHODS OF USING THE SAME” (SERPIN PHARMA, LLC, priority 2022, published 2025).
# B1: EI-tPA: Recombinant human enzymatically inactive tissue-type plasminogen activator, known LRP1 agonist (protein)
# chain: SYQVICRDEKTQMIYQQHQSWLRPVLRSNRVEYCWCNSGRAQCHSVPVKSCSEPRCFNGGTCQQALYFSDFVCQCPEGFAGKCCEIDTRATCYEDQGISYRGTWSTAESGAECTNWNSSALAQKPYSGRRPDAIRLGLGNHNYCRNPDRDSKPWCYVFKAGKYSSEFCSTPACSEGNSDCYFGNGSAYRGTHSLTESGASCLPWNSMILIGKVYTAQNPSAQALGLGKHNYCRNPDGDAKPWCHVLKNRRLTWEYCDVPSCSTCGLRQYSQPQFRIKGGLFADIASHPWQAAIFAKHRRSPGERFLCGGILISSCWILSAAHCFQERFPPHHLTVILGRTYRVVPGEEEQKFEVEKYIVHKEFDDDTYDNDIALLQLKSDSSRCAQESSVVRTVCLPPADLQLPDWTECELSGYGKHEALSPFYSERLKEAHVRLYPSSRCTSQHLLNRTVTDNMLCAGDTRSGGPQANLHDACQGDSGGPLVCLNDGRMTLVGIISWGLGCGQKDVPGVYTKVTNYLDWIRDNMRP
# Columns and labels:
# [1] = test system: capsaicin induced acute pain-related behavior in mice; assay: Intraplantar capsaicin model of acute nociception; type: in vivo, mouse; conditions: male mice; SP163M 2 μg/g s.c. or EI-tPA 2 μg/g i.v. 1 h before capsaicin
# Procedure: For the capsaicin studies, male (n=41) and female (n=37) mice were acclimated to the behavior testing facility for at least 1 h. Capsaicin was dissolved in 20% (2-hydroxypropyl)-β-cyclodextrin (Sigma-Aldrich, St. Louis, MO, USA) solution. […] Subsequently, 10 μl of 2 μg/μl capsaicin solution was injected into the plantar area of left hind paw. Immediately after capsaicin injection, mice were placed in a plexiglass box. Two observers, blinded to treatments, recorded the time spent licking and flinching the left hind paw over 10 min.
# phospho-ERK1/2 = assay: Cell signaling analysis in PC12 cells, immunoblot of phospho-ERK1/2; type: cell-based, rat; conditions: 48 h after transfection
# Procedure: Cell signaling analysis: Rat PC12 cells were purchased from ATCC (CRL-1721). PC12 cells were maintained in high glucose DMEM (Gibco, USA) containing 10% heat-inactivated FBS (Gibco, USA), 5% HyClone heat-inactivated horse serum (Cytiva, USA), penicillin (100 units/ml) and streptomycin ([…]) in 6-well plates that were pre-coated with 0.01 mg/ml type IV collagen (Sigma-Aldrich, St. Louis, MO, USA). Cells were transferred to serum-free medium (SFM) 4 h prior to adding effectors, and then treated with SP163M (2.4, 24 or 240 nM); EI-tPA (12 nM), NGF (0.36 nM), or vehicle (PBS) for 10 min. In some cases, cells were pre-incubated with the competitive antagonist of LRP1, GST-RAP (150 nM) for 15 min or electroporated using the Rat Neuron Nucleofector Amaxa Kit (Lonza Biosciences) and incubated with siRNA to silence LRP1 expression (siLRP1; M-094191-01-0010, Dharmacon) for 48 h. Control cells were transfected with non-targeting control (NTC) siRNA (NTC; D-001810-10-05, Dharmacon). […] Equal amounts of protein from cell lysates (20 μg), as determined by BCA Protein Assay (ThermoFisher Scientific, Waltham, MA, USA), were subjected to 10% SDS-PAGE and electro-transferred to nitrocellulose membranes. […]
molecule,measurement,setting,value
B1,capsaicin induced acute pain-related behavior (time spent licking over 10 min),[1],blocked the capsaicin induced acute pain-related behavior
same,activation of ERK1/2 in cells transfected with LRP1-specific siRNA,phospho-ERK1/2,ERK1/2 was not activated
same,activation of ERK1/2 in cells transfected with NTC siRNA,phospho-ERK1/2,robustly activated ERK1/2
